B1: U3 small nucleolar RNA-associated protein 14 homolog C (Homo sapiens), Q5TAP6 (parent)
chain: MNVNQVAENLALSHQEELVDLPKNYPLSENEDEGDSDGERKHQKLLEAIISLDGKNRRKLAERSEASLKVSEFSVSSEGSGEKLGLADLLEPVKTSSSLATVKKQLNRVKSKKVVELPLNKEKIEQIHREVAFSKTSQVLSKWDPIILKNQQAEQLVFPLGKEQPAIAPIEHALSGWKARTPLEQEIFNLLHKNKQPVTDPLLTPMEKASLQAMSLEEAKMHRAELQRARALQSYYEAKARKEKKIKSKKYHKVVKKGKAKKALKEFEQLQKVNPTVALEEMEKIENARMMERMSLKHQNSGKWAKSKAIMAKYDLEARQAMQEQLAKNKELTQKLQVASESEEEEGGTEVEELLVPHVANEVQMNVDGPNPWMFRSCTSDTKEAATQEDPEQVPELAAHEVSASEAEERPVAEEEILLREFEERQSLRKRSELNQDAEPASSQETKDSSSQEVLSELRALSQKLKEKHQSRKQKASSEGTVPQVQREEPAPEEAEPLLLQRSERVQTLEELEELGKEDCFQNKELPRPVLEGQQSERTPNNRPDAPKEKKEKEQLINLQNFLTTQSPSVRSLAVPTIIEELEDEEERDQRQMIKEAFAGDDVIRDFLKEKREAVEASKPKDVDLTLPGWGEWGGVGLKPSAKKRRQFLIKAPEGPPRKDKNLPNVIISEKRNIHAAAHQVQVLPYPFTHHRQFERTIQTPIGSTWNTQRAFQKLTTPKVVTKPGHIIKPIKAEDVGYQSSSRSDLPVIQRNPKRITTRHNKEEKL
partner: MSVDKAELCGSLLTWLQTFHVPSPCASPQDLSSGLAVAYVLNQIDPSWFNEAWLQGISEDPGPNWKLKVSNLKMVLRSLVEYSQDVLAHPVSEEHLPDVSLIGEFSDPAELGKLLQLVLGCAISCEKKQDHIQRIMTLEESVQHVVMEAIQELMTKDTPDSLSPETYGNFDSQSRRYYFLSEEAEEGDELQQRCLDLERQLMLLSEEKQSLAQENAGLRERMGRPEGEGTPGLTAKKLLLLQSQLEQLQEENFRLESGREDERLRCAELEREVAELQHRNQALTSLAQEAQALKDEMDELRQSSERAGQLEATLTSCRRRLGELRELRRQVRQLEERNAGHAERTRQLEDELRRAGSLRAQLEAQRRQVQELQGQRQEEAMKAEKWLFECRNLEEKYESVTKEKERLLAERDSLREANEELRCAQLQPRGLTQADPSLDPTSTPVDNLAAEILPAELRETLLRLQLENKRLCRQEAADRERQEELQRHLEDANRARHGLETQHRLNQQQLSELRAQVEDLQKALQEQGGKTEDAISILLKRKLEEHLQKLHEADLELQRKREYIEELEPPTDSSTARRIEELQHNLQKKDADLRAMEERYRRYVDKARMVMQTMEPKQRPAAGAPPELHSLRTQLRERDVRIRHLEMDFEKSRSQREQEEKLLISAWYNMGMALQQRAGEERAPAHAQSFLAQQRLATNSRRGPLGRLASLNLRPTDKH
B2: SKA complex subunit 1 (Homo sapiens), Q96BD8 (parent)
chain: MASSDLEQLCSHVNEKIGNIKKTLSLRNCGQEPTLKTVLNKIGDEIIVINELLNKLELEIQYQEQTNNSLKELCESLEEDYKDIEHLKENVPSHLPQVTVTQSCVKGSDLDPEEPIKVEEPEPVKKPPKEQRSIKEMPFITCDEFNGVPSYMKSRLTYNQINDVIKEINKAVISKYKILHQPKKSMNSVTRNLYHRFIDEETKDTKGRYFIVEADIKEFTTLKADKKFHVLLNILRHCRRLSEVRGGGLTRYVIT
partner: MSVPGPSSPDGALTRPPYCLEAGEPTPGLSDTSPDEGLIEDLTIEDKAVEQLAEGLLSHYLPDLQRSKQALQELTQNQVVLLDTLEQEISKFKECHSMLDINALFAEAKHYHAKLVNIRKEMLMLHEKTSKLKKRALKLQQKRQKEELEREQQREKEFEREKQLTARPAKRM
B3: Ropporin-1A (Homo sapiens), Q9HAT0 (parent)
chain: MAQTDKPTCIPPELPKMLKEFAKAAIRVQPQDLIQWAADYFEALSRGETPPVRERSERVALCNRAELTPELLKILHSQVAGRLIIRAEELAQMWKVVNLPTDLFNSVMNVGRFTEEIEWLKFLALACSALGVTITKTLKIVCEVLSCDHNGGSPRIPFSTFQFLYTYIAKVDGEISASHVSRMLNYMEQEVIGPDGIITVNDFTQNPRVQLE
partner: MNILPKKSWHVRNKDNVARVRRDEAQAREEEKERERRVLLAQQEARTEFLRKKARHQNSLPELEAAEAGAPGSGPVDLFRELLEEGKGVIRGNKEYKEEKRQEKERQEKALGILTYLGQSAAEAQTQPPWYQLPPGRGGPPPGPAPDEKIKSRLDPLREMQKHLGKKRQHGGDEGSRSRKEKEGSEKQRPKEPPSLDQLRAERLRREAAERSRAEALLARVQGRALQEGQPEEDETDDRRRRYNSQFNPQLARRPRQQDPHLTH
B4: Protein LDOC1 (Homo sapiens), O95751 (parent)
chain: MVDELVLLLHALLMRHRALSIENSQLMEQLRLLVCERASLLRQVRPPSCPVPFPETFNGESSRLPEFIVQTASYMLVNENRFCNDAMKVAFLISLLTGEAEEWVVPYIEMDSPILGDYRAFLDEMKQCFGWDDDEDDDDEEEEDDY
partner: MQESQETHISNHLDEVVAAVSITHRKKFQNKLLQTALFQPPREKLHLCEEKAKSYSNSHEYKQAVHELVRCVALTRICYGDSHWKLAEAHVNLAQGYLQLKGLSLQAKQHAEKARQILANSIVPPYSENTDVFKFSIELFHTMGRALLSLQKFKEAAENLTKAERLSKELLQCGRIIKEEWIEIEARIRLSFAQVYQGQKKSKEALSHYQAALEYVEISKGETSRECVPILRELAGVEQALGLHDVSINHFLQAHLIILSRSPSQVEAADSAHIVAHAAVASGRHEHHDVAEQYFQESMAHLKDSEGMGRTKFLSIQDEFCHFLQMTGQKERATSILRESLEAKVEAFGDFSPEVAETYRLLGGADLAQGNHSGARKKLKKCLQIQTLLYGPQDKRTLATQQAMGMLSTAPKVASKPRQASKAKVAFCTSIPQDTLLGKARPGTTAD

Variants of: B1
Details: with hook2_human HOOK2, Q96ED9

| effect of a mutation on the interaction | Variant |
| --- | --- |
| with no effect | V570M |
| with no effect | A652T |
| with no effect | R672H |
| with no effect | R319H |
| with no effect | I170V |
| with no effect | G85V |

Variants of: B2
Details: with bl1s6_human BLOC1S6, Q9UL45

| effect of a mutation on the interaction | Variant |
| --- | --- |
| with no effect | V230M |
| with no effect | H86R |

Variants of: B3
Details: with leng1_human LENG1, Q96BZ8

| effect of a mutation on the interaction | Variant |
| --- | --- |
| with no effect | C62W |

Variants of: B4
Details: with ttc23_human TTC23, Q5W5X9

| effect of a mutation on the interaction | Variant |
| --- | --- |
| disrupting interaction strength | L12H |

From IntAct's records for PubMed 31515488
